Test results reported in patent publication CN112125972A (SINOCELLTECH LTD, dated 2020).

How the values were obtained:
HPV6 VLP [1] = target: T1, HPV6 VLP (Human papillomavirus type 6, UniProt P69899 1-500); experiment: indirect ELISA, VLP coated at 2 μg/mL
T1 construct: also called HPV6完整VLP蛋白
T1 sequence: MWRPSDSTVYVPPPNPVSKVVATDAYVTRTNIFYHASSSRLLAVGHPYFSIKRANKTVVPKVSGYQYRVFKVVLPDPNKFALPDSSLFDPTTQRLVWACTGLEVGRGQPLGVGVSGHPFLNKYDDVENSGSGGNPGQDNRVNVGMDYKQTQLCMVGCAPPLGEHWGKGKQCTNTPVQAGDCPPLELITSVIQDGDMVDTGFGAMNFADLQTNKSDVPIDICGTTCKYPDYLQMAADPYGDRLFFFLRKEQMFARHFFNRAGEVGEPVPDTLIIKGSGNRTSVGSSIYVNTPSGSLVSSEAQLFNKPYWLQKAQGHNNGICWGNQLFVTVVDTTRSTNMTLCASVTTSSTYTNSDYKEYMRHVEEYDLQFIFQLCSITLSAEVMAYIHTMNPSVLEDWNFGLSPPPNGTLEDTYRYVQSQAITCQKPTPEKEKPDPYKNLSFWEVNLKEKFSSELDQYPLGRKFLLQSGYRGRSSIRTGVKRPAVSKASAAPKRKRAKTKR

HPV52 VLP = target: T2, HPV52 VLP (Human papillomavirus type 52, UniProt Q05138 27-529); experiment: indirect ELISA, VLP coated at 2 μg/mL, antibody at 10 ng/mL
T2 construct: also called HPV52完整VLP蛋白
T2 sequence: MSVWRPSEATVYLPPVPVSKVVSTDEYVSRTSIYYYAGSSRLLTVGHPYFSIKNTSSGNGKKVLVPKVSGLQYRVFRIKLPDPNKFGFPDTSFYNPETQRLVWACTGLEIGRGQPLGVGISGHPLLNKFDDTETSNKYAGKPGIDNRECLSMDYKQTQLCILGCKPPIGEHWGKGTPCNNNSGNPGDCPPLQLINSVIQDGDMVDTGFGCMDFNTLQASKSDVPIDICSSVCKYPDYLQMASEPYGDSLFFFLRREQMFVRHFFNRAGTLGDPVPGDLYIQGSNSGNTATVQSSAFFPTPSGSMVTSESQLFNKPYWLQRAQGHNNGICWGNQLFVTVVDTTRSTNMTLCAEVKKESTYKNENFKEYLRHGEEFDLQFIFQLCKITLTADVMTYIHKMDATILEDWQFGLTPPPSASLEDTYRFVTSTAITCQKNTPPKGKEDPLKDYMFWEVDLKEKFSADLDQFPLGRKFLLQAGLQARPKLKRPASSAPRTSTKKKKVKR

HPV16 L1 VLP蛋白 = target: T3, HPV16 L1 VLP蛋白 (Human papillomavirus type 16); experiment: as above
T3 construct: Intact virus-like particle of L1; also called HPV16 VLP; HPV16 VLP蛋白

HPV6 VLP [2] = target: T1, HPV6 VLP; experiment: as above
HPV33 VLP = target: T4, HPV33 VLP (Human papillomavirus type 33, UniProt P06416 1-499); experiment: as above
T4 construct: also called HPV33完整VLP蛋白
T4 sequence: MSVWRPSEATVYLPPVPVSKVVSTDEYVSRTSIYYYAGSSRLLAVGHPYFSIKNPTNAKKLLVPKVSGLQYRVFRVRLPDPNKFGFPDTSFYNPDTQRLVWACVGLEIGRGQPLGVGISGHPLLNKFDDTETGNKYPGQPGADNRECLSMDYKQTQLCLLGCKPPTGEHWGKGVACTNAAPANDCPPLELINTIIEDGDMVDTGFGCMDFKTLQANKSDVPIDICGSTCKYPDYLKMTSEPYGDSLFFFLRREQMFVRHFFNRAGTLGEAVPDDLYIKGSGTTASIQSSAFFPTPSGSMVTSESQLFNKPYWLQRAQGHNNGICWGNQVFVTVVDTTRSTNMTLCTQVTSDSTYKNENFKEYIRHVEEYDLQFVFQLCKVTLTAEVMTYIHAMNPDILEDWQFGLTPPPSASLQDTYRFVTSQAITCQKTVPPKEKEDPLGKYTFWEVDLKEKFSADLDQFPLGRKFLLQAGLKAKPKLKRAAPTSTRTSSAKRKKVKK

HPV35 VLP = target: T5, HPV35 VLP (Human papillomavirus type 35, UniProt P27232 1-502); experiment: as above
T5 construct: also called HPV35完整VLP蛋白
T5 sequence: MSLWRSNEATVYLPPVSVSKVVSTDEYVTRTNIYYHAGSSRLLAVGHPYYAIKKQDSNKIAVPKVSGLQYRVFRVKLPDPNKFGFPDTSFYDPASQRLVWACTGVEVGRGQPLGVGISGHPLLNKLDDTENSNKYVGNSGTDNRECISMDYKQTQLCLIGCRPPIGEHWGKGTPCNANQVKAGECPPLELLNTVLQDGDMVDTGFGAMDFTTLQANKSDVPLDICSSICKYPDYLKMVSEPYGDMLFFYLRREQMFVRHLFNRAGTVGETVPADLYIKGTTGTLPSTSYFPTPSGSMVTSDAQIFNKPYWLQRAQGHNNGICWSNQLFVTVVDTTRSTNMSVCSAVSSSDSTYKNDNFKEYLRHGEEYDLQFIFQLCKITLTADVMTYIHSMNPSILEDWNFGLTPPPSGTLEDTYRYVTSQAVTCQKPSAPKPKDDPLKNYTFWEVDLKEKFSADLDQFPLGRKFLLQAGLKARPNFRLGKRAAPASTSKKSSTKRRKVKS

B1: HPV 16 R001 (antibody, V domains shown)
VH: QSVKESEGRLVTPGTPLTLTCTASGFTMSRYHMTWVRQAPGKGLEWIGIIYARNSDTYYANWAKGRFTISKTSTTVDLKITSPTIEDTATYFCARVDSDSSGAFDRLDLWGQGTLVTVSS
VL: DPMLTQTAASVEVAVGGTVTIKCQASQSIGGYLSWYQQKPGQRPKLLIYRASTLASGVPSRFKGSGSGTEYTLTFSGVECADAAAYYCQQGYTSSDINNAFGGGTEVVVK
notes: An HRP-labelled form served as detection antibody in the sandwich ELISA; also called HPV16.001; 单克隆抗体HPV 16 R001
binding result (HPV6 VLP [1]): no binding (tested: 10ng/mL)
OD450-blank (HPV52 VLP): 0.003 OD450
OD450-blank (HPV16 L1 VLP蛋白): 2.53 OD450
OD450-blank (HPV6 VLP [2]): 0.004 OD450
OD450-blank (HPV33 VLP): 0.001 OD450
OD450-blank (HPV35 VLP): 0.001 OD450
